Molecular target: epidermal growth factor receptor (EGFR) (Homo sapiens (Human), UniProt P00533 25-645, limits assumed)
Experiment: potency 1 binding assay (ELISA); RSM sample #15 (10 mg/ml antibody, 55 mM Na-acetate, pH 6.0, 150 mM NaCl) after storage at 60 C for 1 day, relative to control
Description: (11) Potency 1 (Binding assay): ELISA reader (Spectra Max 190, Molecular Devices) was used for potency 1 analysis.
The prepared samples were subjected to thermal tests, under the storage condition of: (i) 37° C. for two weeks; or (ii) 60° C. for one day.

EC50% as compared to a control group: 114 to 121%
B1: anti-EGFR antibody GC1118A (antibody, V domains shown)
VH: EVQLVESGGGVVQPGGSLRLSCAASGFTFSDYDMSWIRQAPGKGLEWVSGILGGSERSYYRDSVKGRFTISRDNSRKTLYLQMNSLRAEDTAVYYCARHGSPGYTLYAWDYWGQGTTVTVSS
VL: DIVMTQTPLSLPVTPGEPASISCRSNQDLTHSNGNTYLEWYLQKPGQSPRLLIYKVSNRFSGVPDRFSGSGAGTDFTLRISRVEAEDVGVYYCMQGTHWPWTFGQGTKVDIKR
notes: These may hold only the part of the antibody that was crystallised
